Data taken from US6699869 (MYRIAD GENETICS, dated 2004).
Non-standard residues stand in square brackets, D forms with d. No end group written: not given here. *: point of attachment. CH2Cl = ClC*

Tests used:
Assay in all cases: cell-based or functional assay
[1] = target: Tissue Plasminogen Activator (t-PA)
[2] = target: bovine factor Xa (from Sigma) (bovine, UniProt P00743 41-492, limits assumed)
Plasmin = target: Plasmin
[3] = target: bovine trypsin (from Sigma) (bovine, UniProt P00760 24-246)
[4] = target: human urokinase (from Sigma) (human, UniProt P00749 21-431, limits assumed)
[5] = target: human Factor VIIa (FVIIa) and human tissue factor (TF) complex (human, UniProt P08709 61-466; P13726 33-251, limits assumed)

bovine factor Xa (from Sigma), sequence (P00743 41-492 limits assumed): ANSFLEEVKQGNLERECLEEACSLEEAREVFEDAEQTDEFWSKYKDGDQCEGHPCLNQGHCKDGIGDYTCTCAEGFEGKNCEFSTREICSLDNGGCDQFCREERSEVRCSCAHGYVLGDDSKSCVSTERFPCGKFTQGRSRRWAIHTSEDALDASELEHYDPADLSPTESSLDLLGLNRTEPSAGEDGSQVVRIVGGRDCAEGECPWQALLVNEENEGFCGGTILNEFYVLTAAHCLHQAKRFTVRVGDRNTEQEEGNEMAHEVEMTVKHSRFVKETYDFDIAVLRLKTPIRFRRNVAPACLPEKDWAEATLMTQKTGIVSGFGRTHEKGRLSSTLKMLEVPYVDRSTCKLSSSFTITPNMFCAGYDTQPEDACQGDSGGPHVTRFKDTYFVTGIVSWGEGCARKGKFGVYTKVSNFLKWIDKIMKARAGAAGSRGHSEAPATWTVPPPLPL
bovine trypsin (from Sigma), sequence (P00760 24-246): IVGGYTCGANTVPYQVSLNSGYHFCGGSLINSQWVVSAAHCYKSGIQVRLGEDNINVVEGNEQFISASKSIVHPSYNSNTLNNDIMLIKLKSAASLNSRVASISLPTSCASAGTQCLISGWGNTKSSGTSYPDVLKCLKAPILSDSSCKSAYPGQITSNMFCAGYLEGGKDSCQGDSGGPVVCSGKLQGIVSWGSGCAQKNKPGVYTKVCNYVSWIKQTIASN

IC50 (nM), inhibition of chromogenic substrate hydrolysis by the enzyme [1]: 106 nM
IC50 (nM), inhibition of chromogenic substrate hydrolysis by the enzyme [2]: 165 nM
IC50 (nM), inhibition of chromogenic substrate hydrolysis by the enzyme (Plasmin): 699 nM
IC50 (nM), inhibition of chromogenic substrate hydrolysis by the enzyme [3]: 212 nM
IC50 (nM), inhibition of chromogenic substrate hydrolysis by the enzyme [4]: 508 nM
IC50 (nM), inhibition of chromogenic substrate hydrolysis by the enzyme [5]: 200 nM
B1: (D)FPR-CH2Cl (peptide)
peptide: [dF]-Pro-Arg-CH2Cl
